Measured values from patent US20220096653A1, “CONJUGATE COMPRISING LIGAND AND CEACAM5 ANTIBODY FAB FRAGMENT” (ASTELLAS PHARMA INC., priority 2019, published 2022).

B1: (Y-S1-X)p-Fab^2 with Y Gd/DOTA, S1 -NH-(CH2)2-C(═O)-, X -Gly-Lys*-Z2(#N)- (Fab, V domains shown)
VH: EVQLVESGGGLVQPGGSLRLSCAASGFNIRDTYMHWVRQAPGKGLEWVARIDPANGNSRYVPKFQGRFTISADTSRNTAYLQMNSLRAEDTAVYYCAPFGYYVSDYAMAYWGQGTLVTVSS
VL: DIQLTQSPSSLSASVGDRVTITCRAGESVDIFGVGFLHWYQQKPGKAPKLLIYRASNLESGIPSRFSGSGSRTDFTLTISSLQPEDFATYYCQQTNEDPYTFGQGTKVEIKR
modifications: labeling may sit on this chain; sites not stated; labeling portion (MW 896) on amino groups of the Fab, sites and chain not stated; 1-3 per Fab by MS
notes: also called Ex-No 22; conjugate 22
B2: (Y-S1-X)p-Fab^2 with Y Gd/DOTA, S1 spacer (a), X -Gly-Lys*-Z2(#N)- (Fab, V domains shown)
VH: EVQLVESGGGLVQPGGSLRLSCAASGFNIRDTYMHWVRQAPGKGLEWVARIDPANGNSRYVPKFQGRFTISADTSRNTAYLQMNSLRAEDTAVYYCAPFGYYVSDYAMAYWGQGTLVTVSS
VL: DIQLTQSPSSLSASVGDRVTITCRAGESVDIFGVGFLHWYQQKPGKAPKLLIYRASNLESGIPSRFSGSGSRTDFTLTISSLQPEDFATYYCQQTNEDPYTFGQGTKVEIKR
modifications: labeling may sit on this chain; sites not stated; labeling portion (MW 936) on amino groups of the Fab, sites and chain not stated; 1-3 per Fab by MS
notes: also called Ex-No 23; conjugate 23
B3: [Gd/DOTA-NH-CH2-(1,3-Ph)-C(═O)-Met-Gly-Lys*-Z2(#S)]p-Fab^2 (Fab, V domains shown)
VH: EVQLVESGGGLVQPGGSLRLSCAASGFNIRDTYMHWVRQAPGKGLEWVARIDPANGNSRYVPKFQGRFTISADTSRNTAYLQMNSLRAEDTAVYYCAPFGYYVSDYAMAYWGQGTLVTVSS
VL: DIQLTQSPSSLSASVGDRVTITCRAGESVDIFGVGFLHWYQQKPGKAPKLLIYRASNLESGIPSRFSGSGSRTDFTLTISSLQPEDFATYYCQQTNEDPYTFGQGTKVEIKR
modifications: labeling may sit on this chain; sites not stated; labeling portion (MW 1190) bound via 2-iminothiolane-treated amino groups of the Fab, sites and chain not stated; 1-2 per Fab by MS
notes: also called Ex-No 24; Conjugate No. 24
B4: (Y-S1-X)p-Fab^2 with Y Gd/DOTA, S1 -NH-(CH2CH2O)3-CH2-C(═O)-NH-CH2-(1,3-Ph)-C(═O)-, X -Gly-Lys*-Z2(#S)- (Fab, V domains shown)
VH: EVQLVESGGGLVQPGGSLRLSCAASGFNIRDTYMHWVRQAPGKGLEWVARIDPANGNSRYVPKFQGRFTISADTSRNTAYLQMNSLRAEDTAVYYCAPFGYYVSDYAMAYWGQGTLVTVSS
VL: DIQLTQSPSSLSASVGDRVTITCRAGESVDIFGVGFLHWYQQKPGKAPKLLIYRASNLESGIPSRFSGSGSRTDFTLTISSLQPEDFATYYCQQTNEDPYTFGQGTKVEIKR
modifications: labeling may sit on this chain; sites not stated; labeling portion (MW 1248) on amino groups of the Fab, sites and chain not stated; 1-2 per Fab by MS
notes: also called Ex-No 25; conjugate 25
B5: (Y-S1-X)p-Fab^2 with Y Gd/DOTA, S1 spacer (d), X -Gly-Lys*-Z2(#N)- (Fab, V domains shown)
VH: EVQLVESGGGLVQPGGSLRLSCAASGFNIRDTYMHWVRQAPGKGLEWVARIDPANGNSRYVPKFQGRFTISADTSRNTAYLQMNSLRAEDTAVYYCAPFGYYVSDYAMAYWGQGTLVTVSS
VL: DIQLTQSPSSLSASVGDRVTITCRAGESVDIFGVGFLHWYQQKPGKAPKLLIYRASNLESGIPSRFSGSGSRTDFTLTISSLQPEDFATYYCQQTNEDPYTFGQGTKVEIKR
modifications: labeling may sit on this chain; sites not stated; labeling portion (MW 954) on amino groups of the Fab, sites and chain not stated; 1-3 per Fab by MS
notes: also called Ex-No 26; conjugate 26
B6: (Y-S1-X)p-Fab^2 with Y Gd/DOTA, S1 spacer (b), X -Gly-Lys*-Z2(#N)- (Fab, V domains shown)
VH: EVQLVESGGGLVQPGGSLRLSCAASGFNIRDTYMHWVRQAPGKGLEWVARIDPANGNSRYVPKFQGRFTISADTSRNTAYLQMNSLRAEDTAVYYCAPFGYYVSDYAMAYWGQGTLVTVSS
VL: DIQLTQSPSSLSASVGDRVTITCRAGESVDIFGVGFLHWYQQKPGKAPKLLIYRASNLESGIPSRFSGSGSRTDFTLTISSLQPEDFATYYCQQTNEDPYTFGQGTKVEIKR
modifications: labeling may sit on this chain; sites not stated; labeling portion (MW 950) on amino groups of the Fab, sites and chain not stated; 1-3 per Fab by MS
notes: also called Ex-No 27; conjugate 27
B7: (Y-S1-X)p-Fab^2 with Y Gd/DOTA, S1 spacer (c), X -Gly-Lys*-Z2(#N)- (Fab, V domains shown)
VH: EVQLVESGGGLVQPGGSLRLSCAASGFNIRDTYMHWVRQAPGKGLEWVARIDPANGNSRYVPKFQGRFTISADTSRNTAYLQMNSLRAEDTAVYYCAPFGYYVSDYAMAYWGQGTLVTVSS
VL: DIQLTQSPSSLSASVGDRVTITCRAGESVDIFGVGFLHWYQQKPGKAPKLLIYRASNLESGIPSRFSGSGSRTDFTLTISSLQPEDFATYYCQQTNEDPYTFGQGTKVEIKR
modifications: labeling may sit on this chain; sites not stated; labeling portion (MW 908) on amino groups of the Fab, sites and chain not stated; 1-3 per Fab by MS
notes: also called Ex-No 28; conjugate 28

Molecular target: T1, CEACAM5 (R&D Systems, 4128-CM-050) (human, UniProt P06731 35-685)
T1 construct: Immobilised on the ELISA plate; also called human CEACAM5
T1 sequence (looked up): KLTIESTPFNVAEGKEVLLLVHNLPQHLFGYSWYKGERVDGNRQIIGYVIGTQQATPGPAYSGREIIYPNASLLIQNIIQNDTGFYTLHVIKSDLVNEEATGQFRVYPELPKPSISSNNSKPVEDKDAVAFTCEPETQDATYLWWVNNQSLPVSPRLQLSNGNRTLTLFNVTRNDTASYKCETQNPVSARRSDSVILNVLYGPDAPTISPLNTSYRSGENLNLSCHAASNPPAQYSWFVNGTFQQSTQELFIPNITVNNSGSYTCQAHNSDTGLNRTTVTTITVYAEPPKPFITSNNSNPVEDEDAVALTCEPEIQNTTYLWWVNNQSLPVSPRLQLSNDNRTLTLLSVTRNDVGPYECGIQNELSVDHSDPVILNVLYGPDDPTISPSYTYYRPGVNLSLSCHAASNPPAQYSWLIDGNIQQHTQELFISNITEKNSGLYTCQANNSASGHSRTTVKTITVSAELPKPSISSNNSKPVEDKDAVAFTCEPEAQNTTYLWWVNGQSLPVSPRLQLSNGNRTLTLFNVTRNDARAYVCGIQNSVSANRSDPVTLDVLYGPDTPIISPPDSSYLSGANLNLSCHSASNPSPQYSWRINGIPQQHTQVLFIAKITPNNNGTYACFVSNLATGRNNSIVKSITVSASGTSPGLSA
Experiment: ELISA on immobilised CEACAM5, 4-parameter fit, duplicate
Protocol: Each anti-human CEACAM5 antibody Fab fragment conjugate prepared in Example 2 was subjected to ELISA to evaluate the binding activity thereof to CEACAM5. In the present test, a phosphate buffer (Nacalai Tesque Inc., 0.1 mol/L-Phosphate Buffer Solution (pH 7.2)) prepared to 10 mM by diluting 10-fold with distilled water was used as a solvent for an antigen immobilization liquid, and 20×PBS/Tween 20 Buffer (Thermo Fisher Scientific Inc., 28352) diluted 20-fold with distilled water was used as a wash liquid. In addition, for bovine serum albumin (BSA) used in the present test, 30% Bovine Serum Albumin solution (Sigma-Aldrich, Inc., A9576-50ML) was added in an appropriate proportion for use. CEACAM5 (R&D Systems, 4128-CM-050) was diluted with a 10 mM phosphate buffer (pH 7.2) to 0.1 μg/mL, and added to a Nunc MaxiSorp White 384 plate (Nunc, 4603272) at 30 μL per well, and the plate was incubated overnight at 4° C. for immobilization. The CEACAM5 immobilization liquid was removed by reverse centrifugation, and then blocking was carried out by adding a PBS/Tween 20 buffer containing 5.0% BSA. Thereafter, the blocking solution was removed by reverse centrifugation, a solution of each CEACAM5 antibody Fab² fragment conjugate described above or a Fab² fragment having no labeling portion (PB009-01) as a control at about 10000 ng/mL was diluted in 14 steps by 3-fold dilution using a PBS/Tween 20 buffer containing 1.0% BSA, and 30 μL was added per well and incubated at room temperature for 60 minutes. The plate was washed 3 times with a PBS/Tween 20 buffer, and Horseradish Peroxidase (HRP)-labeled goat anti-human IgG (H+L chain) antibody (MBL Life Sciences, 206) diluted 1000-fold using a PBS/Tween 20 buffer containing 5.0% BSA was added at 30 μL per well and incubated at room temperature for 30 minutes. The plate was washed 3 times with a PBS/Tween 20 buffer, and ECL Prime Western Blotting DETECTION Reagent (GE Healthcare, RPN2232) as a substrate was added at 30 μL per well. The substrate was incubated at room temperature for 15 minutes, and then a signal value thereof was measured using an Envision counter (PerkinElmer, Inc.).
The test for each antibody was carried out in duplicate, and an EC₅₀ value was calculated using a 4-parameter logistic curve model.

B1 and B2 are within 1.5-fold of each other in EC50: 0.32 nM for the first, 0.33 nM for the second.

B3 and B4 are within 1.5-fold of each other in EC50: 0.25 nM for the first, 0.32 nM for the second.

First: B5
Second: B6
The EC50 of the first is 1.5-fold lower: 0.3 nM for the first, 0.46 nM for the second. The first is the more potent here.

Binder B7 has an EC50 of 0.36 nM.
